Laboratory results taken from publication PMC7371201.
pKd: −log10 of the molar value.

Key:
[1] = test system: NbGlk1(83-402) (Nicotiana benthamiana); experiment: fluorescence anisotropy; settings: DNA annealed in 150 mM NaCl, 15 mM Na citrate, binding buffer, pH and temperature not given in the material
[2] = target: NbGlk1(83–402) (N. benthamiana (from the prefix Nb)); experiment: SEC; purified recombinant proteins run alone and after co-incubation; peak fractions visualised by SDS-PAGE
[3] = target: NbDBCP-T (amino acids 1–414 of NbDBCP) (Nicotiana benthamiana); experiment: SEC; NbDBCP-T alone; approximate molecular weight by gel filtration chromatography

Q: Which results are given for “CGGATATCCACGGATATCCACGGATATCCACGGATATCCACGGATATCCC (double strand) [FA-5/FA-6 concatenated GGATATCC GLK site duplex]”?
A: pKd ([1]; NbGlk1 alone): 6.96; pKd ([1]; with NbDBCP-T (1-414)): 6.80

Q: For “NbDBCP-T (amino acids 1–414 of NbDBCP) (domain or fragment)”, which left:right ratio of NbDBCP within the 12-mL elution volume (densitometry; 1.37 for NbDBCP-T alone) [2] is on record?
A: The left:right ratio of NbDBCP within the 12-mL elution volume (densitometry; 1.37 for NbDBCP-T alone) was 1.6.

Q: And the stoichiometry N [3]?
A: The stoichiometry N was 2.
